The target in assay [1] is purified recombinant human α5β1 integrin heterodimer, 6×His tagged (rh-α5β1; Acro Biosystems, cat. no. IT1-H52W5) (human) (UniProt P08648). Description: ELISA, inhibition of rh-α5β1-His binding to coated FN, isotype control (data normalised to it).
In assay [2] the target is purified recombinant human α5β1 integrin heterodimer (rh-α5β1; Acro Biosystems, cat. no. IT1-H52W5) (human) (UniProt P08648). The assay can be described thus: Conformation assay ELISA: plate coated with 12G10, soluble 12G10 dilution series premixed with His-tagged rh-α5β1 and 0.5 mM MnCl2, captured α5β1 detected by anti-6xHis; competitor on the plate: 12G10 itself. A general note: ELISA stands for enzyme-linked immunosorbent assay.

The target in assay [3] is recombinant human α4β1 integrin (human) (UniProt P13612). The assay can be described thus: ELISA, coated integrin, supernatant 1:10.
Assay [4] has as its target recombinant human α5β1 integrin (human) (UniProt P08648). Description: ELISA, coated integrin, supernatant 1:10.
Assay [5] has as its target T1, recombinant mouse α5β1 integrin (mouse, UniProt P11688 45-999; P09055 21-728).
T1 construct: bought recombinant heterodimer (R&D Systems cat. 7728-A5) coated on the plate; also called rm-α5β1
Description: ELISA, coated integrin, supernatant 1:10. The protocol: Plates were washed 3 times with Wash Buffer (1× Tris Buffered Saline containing 0.05% Tween20), blocked with 2% BSA in 1×TBS (made from 10× Thermo Scientific Blocker BSA (10×) in TBS; Thermo Fisher Scientific, Waltham, MA, cat. no. 37520) for 2 hours at room temperature (RT) then incubated with hybridoma supernatants diluted 1:10 with Standard Diluent (2% BSA, 1×TBS, 0.05% Tween20). […] Absorbance 450 nm was measured.

Assay [6] deals with α5β1 integrin on cells (PMA-activated K562 cells; U87MG cells) (human) (UniProt P08648). The assay can be described thus: flow cytometry on PMA-activated K562 cells, hybridoma supernatant.
Assay [7] has as its target purified recombinant human α5β1 integrin heterodimer, 6×His tagged (rh-α5β1; Acro Biosystems, cat. no. IT1-H52W5) (human) (UniProt P08648). Description: BLI (Octet), supernatant mAb on anti-mouse IgG Fc sensor, 20 nM rh-α5β1. A general note: BLI is a label-free optical method that tracks binding on a fibre tip over time.
For assay [8], the target named is T2, purified recombinant human α5β1 integrin heterodimer (rh-α5β1; Acro Biosystems, cat. no. IT1-H52W5) (human, UniProt P08648 42-995; P05556 21-728).
T2 construct: Bought protein; 6×His tagged; also called rh-α5β1-6×His tagged protein; His-tagged-α5β1
The assay can be described thus: FN-blocking ELISA. As to the method: Following 1 hour at RT, the wells were washed 3 times, incubated with biotinylated Anti-6×His-Tag Ab (Invitrogen, Carlsbad, CA, cat. no. MAI-21315-BTIN) at 1:1000 in Standard Diluent for 1 hour, washed 3 times, incubated for 30 minutes with poly-HRP Streptavidin (Thermo Fisher Scientific, Waltham, MA, cat. no. N200), washed 4 times, incubated with TMB substrate (Thermo Fisher Scientific, Waltham, MA, cat. no. N301) for 2-5 minutes, followed by addition of ELISA Stop Solution (Invitrogen, Carlsbad, CA, cat. no. SS04). Absorbance 450 nm was measured. Data points were normalized to the isotype Control Ab values at each concentration and reported as % Absorbance 450 nm normalized to Control Ab. Non-linear regression analysis was used to fit curves (4-parameter) to the data using GraphPad Prism version 9.0.2 (GraphPad Software, LLC, San Diego, CA).

In assay [9] the target is T2, purified recombinant human α5β1 …. The assay can be described thus: Conformation assay ELISA: plate coated with 12G10, antibody dilution series premixed with His-tagged rh-α5β1 and 0.5 mM MnCl2, captured α5β1 detected by anti-6xHis; competitor on the plate: 12G10. As to the method:
Plates were then washed 3 times with Wash Buffer (1× Tris Buffered Saline containing 0.05% Tween20), then blocked with 2% BSA in 1×TBS for 2 hours at room temperature (RT). […] After 1 hour at RT, the wells were washed 3 times, incubated with biotinylated Anti-6×His-Tag Ab (Invitrogen, Carlsbad, CA, cat. no. MAI-21315-BTIN) at 1:1000 in Standard Diluent for 1 hour, washed 3 times, incubated for 30 minutes with poly-HRP Streptavidin (Thermo Fisher Scientific, Waltham, MA, cat. no. N200), washed 3 times, incubated with TMB substrate (Thermo Fisher Scientific, Waltham, MA, cat. no. N301) for 2-5 minutes, followed by addition of ELISA Stop Solution (Invitrogen, Carlsbad, CA, cat. no. SS04). Absorbance 450 nm was measured.

Where a chain is given by its changes, count along the chain named.

For the molecule “Isotype control antibody (Ms IgG2a, EMD Millipore, cat. no. PP102)”, the % Max Inhibition in assay [1] turned out to be 0%.

As to “12G10 (mouse anti-human integrin beta1/CD29 antibody, Novus Biologicals, cat. no. NB100-63255)”, the IC50 (read off the curve) in assay [2] stood at 0.08 µg/mL.

B1: A-15C03 (antibody, part only; not given: light chain, V domains shown, part only)
VH: QVQLKESGPGLVAPSQSLSITCTISGFSLTTYGVHWVRQPPGKGLEWLVVIWSDGSTTYNSALKSRLNITKDNSKSQVFLKMNSLQTDDTAMYYCVRHGGLLRRDAMDYWGQGTSVTVSS
Consider B1, for which the Absorbance 450 nm in assay [3] was 0.0793 A450. In addition, the Absorbance 450 nm in [4] is 0.478 A450. Also, in assay [5], the Absorbance 450 nm is 0.0709 A450. The MFI in assay [6] was 1970. For the same molecule, in assay [7], the Kd is 4.67 nM, the koff turned out to be 0.00129 s⁻¹ and the kon was 276000 M⁻¹ s⁻¹.

B2: A-15B08 IgG4 Chimera (antibody, V domains shown)
VH: QVQLKESGPGLVAPSQSLSITCTISGFSLTSYGVHWVRQPPGKGLEWLVVIWSDGSTTYNSTLKSRLSISKDNSKSQVFFKMNSLQTDDTAMYYCARHYDYDGDWFAYWGQGTLVTVSA
VL: QIVLTQSPAIMSASLGERVTMTCTASSRVSSNSLHWYQQKPGSSPKLWIYSTSNLASGVPARFSGSGSGTSYSLTISSMEAEDAATYYCHQYLRSPPTFGGGTKLEIK
notes: heavy chain glycosylated at the NST site of CDRH2; also called A-15B08 (human IgG4 chimeric antibody)
Regarding B2, the “fold potency (IC50) against the mouse hybridoma antibody it was derived from” value in [8] was around 2 fold. For the same molecule, the “IC50 (read off the curve)” value in assay [9] is around 0.02 µg/mL.

B3: C-14D12 IgG4 Chimera (antibody, V domains shown)
VH: QVQLKESGPDLVAPSQSLSITCTVSGFSLTDYGVHWVRQPPGKGLEWLVVIWSDGSTTYNSALKSRLSITKDTSKRQVFLKMNSLQTDDTAMYYCARHAPSFIRYGSRYDALDYWGQGTSVTVSS
VL: B2 VL with M21L, R28S, S30T, N32S, S33F, L93H
notes: also called C-14D12 (human IgG4 chimeric antibody)
For the molecule B3, the “fold potency (IC50) against the mouse hybridoma antibody it was derived from” value in assay [8] is around 2 fold. In addition, the “IC50 (read off the curve)” value in assay [9] is around 0.02 µg/mL.

By Kd is commonly meant the free concentration of one partner at which half of the binding sites on the other are occupied at equilibrium, for simple one-to-one binding. The term koff denotes the first-order rate constant of dissociation. As a reminder, the kon is a measure of how fast the partners come together.

The values above are taken from patent US20240279345A1, “ALPHA 5 BETA 1 INTEGRIN BINDING AGENTS AND USES THEREOF” (PASITHEA THERAPEUTICS CORP., priority 2021, published 2024).
